Data as given in patent US20230340070A1.

Columns and labels:
[1] = molecular target: anti-TRP-1 antibody (TA99, BioXcell); assay: cell-based or functional assay
[2] = molecular target: anti-CD20 antibody (18B12, Absolute antibody); assay: cell-based or functional assay

Substance | B16-H2B-tdTomato target cell count after 48 hours co-culture with infected CD8+ T cells and anti-TRP-1 antibody (FIG. 8C; sham: around 750 B16 cells) [1] | killing of B16-H2B-tdTomato target cells by infected CD4+ and CD8+ T cells with anti-TRP-1 antibody, incuCyte target cell numbers after 48 hours; effector : target ratio needed (effector : target ratio (x to 1)) [1] | killing of B16-H2B-tdTomato target cells by infected T cells with anti-TRP-1 antibody, incuCyte; effector : target ratio at which killing was induced (effector : target ratio (x:1)) [1] | A20 B-cell lymphoma cell death by Annexin-V staining in flow cytometry after co-culture with infected CD8+ T cells and anti-CD20 antibody [2]
Alpha-2A-gamma (extracellular, transmembrane and intracellular domains of FcγRI, T2A skipping peptide and FcRγ) (receptor) | 575 B16 cells | > 8 |  | 
Alpha-gamma-2A-gamma (extracellular and transmembrane domains of FcγRI fused to the intracellular domain of FcRγ, T2A skipping peptide and FcRγ) |  |  | 2 | 
Alpha-gamma-2A-gamma (extracellular and transmembrane domains of FcγRI fused to the intracellular domain of FcRγ, T2A skipping peptide and FcRγ) (receptor) | 460 B16 cells |  |  | 20%
